These are literature values, as cited in PMC10536416.

Like-named read-outs stand apart in the source and are kept apart here.

Data set [1] has as its target Amyloid beta 1-42 Abeta 1-42 (Homo sapiens) (UniProt P05067).
For data set [2] the target is unchanged. This is another data set of the same source.

As for “Amyloid beta 1-40 Abeta 1-40 (from UniProt P05067)”, the equilibrium dissociation constant (Kd) (usually a measure of binding affinity in units of concentration) in data set [1] was 0.266 µM.

On to “Amyloid beta 1-40 on dextran-coated iron oxide nanoparticles Abeta 1-40 (from UniProt P05067)”, for which, in data set [2], the Kd was 0.202 µM.
